According to patent US20050048060A1, “Immunoconjugates” (priority 2002, published 2005):

Experiments:
[1] = system: LS 174T tumor xenografts; experiment: Conjugate localization (125I labeled conjugate biodistribution) in nude mice bearing LS 174T tumor xenografts; details: mouse, in vivo, iv, 1 mg/kg
Procedure: FIG. 4: Pharmacokinetics of cAb-CEA5::βL and the nonbinding control cAb-Lys3::βL in nude mice (three animals/group). βL conjugate levels in subcutaneous LS 174T colon carcinoma tumors and in normal tissues are shown at 6 hours, 24 hours and 48 hours post-administration. cAb-Lys3::βL served as nonbinding control.
Studies were undertaken in nude mice to establish the extent of cAb-CEA5::β-lactamase conjugate localization in LS 174T tumor xenografts. ^125I labeled cAb-CEA5::β-lactamase (4,728,481 cpm/μg conjugate) or cAb-Lys3::β-lactamase conjugate (2,691,621 cpm/μg conjugate) were injected i.v. (1 mg/kg) into mice (3 animals/group) that had subcutaneous LS 174T carcinoma tumors of about 0.5-1 cm diameter. The amount of radioactivity in the tumors, blood, and several other tissues was determined 6 hours, 24 hours and 48 hours later (FIG. 4). […] In order to see whether the radioactivity measured originated from intact conjugate molecules or degraded material, the enzymatic activity of β-lactamase in targeted tumor, liver and kidney tissue using nitrocefin was assessed. […]
The cAb-CEA::βL conjugate was radioiodinated with carrier-free ^125I using the IODOGEN reagent, following the manufacturer's (Pierce, Rockford, Ill., US) recommended method. […] The tumor, a sample of blood, and a range of other tissues were removed, weighed, and counted in a gamma counter.

[2] = parameters: species or system nude mice
Procedure: Studies were undertaken in nude mice to establish the extent of cAb-CEA5::β-lactamase conjugate localization in LS 174T tumor xenografts. ^125I labeled cAb-CEA5::β-lactamase (4,728,481 cpm/μg conjugate) or cAb-Lys3::β-lactamase conjugate (2,691,621 cpm/μg conjugate) were injected i.v. (1 mg/kg) into mice (3 animals/group) that had subcutaneous LS 174T carcinoma tumors of about 0.5-1 cm diameter. The amount of radioactivity in the tumors, blood, and several other tissues was determined 6 hours, 24 hours and 48 hours later (FIG. 4). […] A rather high accumulation of both cAb-CEA5::βL and cAb-Lys3::βL conjugates in the kidneys (0.41-0.53% ID/g tissue) was also noticed. In order to see whether the radioactivity measured originated from intact conjugate molecules or degraded material, the enzymatic activity of β-lactamase in targeted tumor, liver and kidney tissue using nitrocefin was assessed. […] The blood and normal tissue levels were still high at this time point and, thus, tumor/normal tissue ratios were low. After 24 hours, although the amounts of cAb-CEA::βL conjugate in the tumors had fallen to approximately 1% injected dose/g tumor, the blood and normal tissue levels had fallen more rapidly and, consequently, tumor/normal tissue ratios were in the 10-50 fold range, except for the kidneys where a high amount of radioactivity could still be measured.

[3] = system: LS 174T xenografts; experiment: Anti-tumor effect of the prodrug therapy in nude mice with LS 174T xenografts; assay type: in vivo; details: conjugate 1 mg/kg i.v.
Procedure: FIG. 5: Therapeutic effect of cAb::βL/CCM combinations in nude mice with LS 174T xenografts. Conjugates (1 mg/kg) were injected i.v. on days indicated by the arrows, and CCM was administered 24 hours later. The therapeutic effects were compared to those of PDM at the MTD.
The anti-tumor effect of giving cAb-CEA::βL conjugate (1 mg/kg body weight) followed 24 hours later by escalating doses of CCM (100, 150, 200 mg/kg) are shown in FIG. 5. […] Therapeutic efficiency was dose-dependent.
Groups of five female athymic nude mice were injected subcutaneously with 2×10^6 LS 174T tumor cells. Ten days later when the tumors reached a size of about 100 mm^3, 1 mg/kg bodyweight of βL conjugates was injected i.v., followed 24 hours later by the prodrug CCM. Treatment with cAb-βL+CCM was carried out on a weekly schedule for a total of three rounds. The animals were monitored twice a week for general health, weight and tumor growth and compared to control groups receiving no treatment. Tumor volumes were calculated using the formula (longest length×perpendicular width^2)/2.

[4] = system: LS 174T human adenocarcinoma cells; experiment: In vitro cytotoxicity assay, [3H] thymidine incorporation, conjugate + CCM prodrug; details: cells blocked with unconjugated cAb-CEA5 0.1 mg/ml before conjugate

B1: cAb-CEA5-βL (protein)
chain: QVQLVESGGGSVQAGGSLRLSCAASGDTYGSYWMGWFRQAPGKEREGVAAINRGGGYTVYADSVKGRFTISRDTAKNTVYLQMNSLRPDDTADYYCAASGVLGGLHEDWFNYWGQGTQVTVSSAHHSEDPSSKAPKAPMGTPVSEKQLAEVVANTITPLMKAQSVPGMAVAVIYQGKPHYYTFGKADIAANKPVTPQTLFELGSISKTFTGVLGGDAIARGEISLDDAVTRYWPQLTGKQWQGIRMLDLATYTAGGLPLQVPDEVTDNASLLRFYQNWQPQWKPGTTRLYANASIGLFGALAVKPSGMPYEQAMTTRVLKPLKLDHTWINVPKAEEAHYAWGYRDGKAVRVSPGMLDAQAYGVKTNVQDMANWVMANMAPENVADASLKQGIALAQSRYWRIGSMYQGLGWEMLNWPVEANTVVEGSDSKVALAPLPVAEVNPPAPPVKASWVHKTGSTGGFGSYVAFIPEKQIGIVMLANTSYPNPARVEAAYHILEALQHHHHHH
[1]
  amount of conjugate in the tumors: approximately 1 % injected dose/g tumor
[2]
  β-lactamase enzymatic activity in excised tumor tissue: enzymatic activity was intact
  β-lactamase enzymatic activity in kidney tissue: no activity could be measured
  β-lactamase enzymatic activity in liver tissue: no activity could be measured
[3]; 24 hours later CCM 200 mg/kg/injection
  anti-tumor activity at 200 mg CCM/kg/injection: Significant anti-tumor activity including partial regression of the tumors
[3]; 24 hours later CCM 100, 150, 200 mg/kg, weekly, three rounds, vs non-treated or cAb-Lys3::βL + CCM
  anti-tumor effect of the prodrug therapy combination: significant anti-tumor effect
[4]
  prodrug CCM activation on cells saturated with unconjugated cAb-CEA5: activated CCM at marginal levels
